These results are taken from patent publication US9097721B2, “Compositions comprising engineered phosphothreonine affinity reagents, methods of making, and methods of use” (The Board of Trustees of the University of Illinois, priority 2012, dated 2015).

One data set concerns the target T1, Rad9-pT peptide (Saccharomyces cerevisiae, UniProt P14737).
T1 construct: host or cells: chemical synthesis
Briefly: ELISA of GST fusions of FHA1 domains. The class given is binding, yeast. The conditions noted are these: expressed in bacterial cytoplasm as GST fusion; listed as WT FHA1 domain. As for the experimental part: For production of FHA1-GST fusion protein, BL21 DE3 cells (10 mL; Stratagene) harboring the expression vector was grown overnight at 30° C. using the Overnight Express™ Autoinduction System 1 (Novagen). The next day, cells were lysed using BugBuster® 10× Protein Extraction Reagent (Novagen) following the manufacturer's instructions. Cell lysate (100 μL diluted 1:5 with PBST) was incubated with the biotinylated peptides as described above and detected using anti-GST antibody conjugated to HRP (diluted 1:10,000 with PBST; GE Healthcare).
In general terms: In an ELISA, binding on a coated surface is turned into a signal by an enzyme label.

The target of data set [1] is T2, pT peptide (Rad 9-pT: SLEVpTEADATFYAKK) (Saccharomyces cerevisiae, UniProt P14737).
T2 construct: host or cells: chemical synthesis
The conditions noted are these: Durocher et al. (2000); read-out: previously reported Kd by ITC; cited from earlier work. Background: ITC needs no label: the signal is the heat of the interaction.

Data set [2] can be described thus: Fluorescence-based thermal shift (FTS) assay, melting temperature. The conditions noted are these: mid-point of melting curve. The class given is physicochemical. The protocol:
(§1) The FTS assay was performed on a MxPro-Mx3005P instrument (Stratagene) following the protocol described by Giuliani et al (Giuliani et al. (2008) Biochemistry 47, 13974-84). It is a real-time assay using the SYBR® Green experiment setting with dissociation curve. The default FRROX filter set was used with an excitation wavelength of 492 nm and emission wavelength of 610 nm. FHA1 domains diluted with PBS to 2× final concentration (i.e. 2 μM and 8 μM) were mixed with 10×SYPRO® Orange protein gel stain (Invitrogen; 5000× concentration in DMSO) to give a final dye concentration of 10×. Then, to the protein wells only, 10 μL of the dye+protein mixture was added along with 10 μL of 1×PBS buffer. In other wells, 10 μL of either the pT peptide or its non-phosphorylated form (diluted to 2× final concentration with PBS, i.e. 100 μM and 500 μM) was added to 10 μL of dye+protein mixture. The final reaction volume was 20 μL with final concentrations of 1 μM or 4 μM of FHA1 domains, 50 μM or 250 μM of pT and non-phosphorylated peptides and 5× final concentration of the SYPRO® Orange. The assay was performed in duplicate in 96 well white PCR plates (BIO-Rad) covered with optically clear Microseal® ‘B’ Film (Bio-Rad) and heated from 25° C. to 95° C. and the melting curve was obtained with fluorescence (R) values plotted on the Y-axis and increasing temperature (° C.) on the X-axis. The mid-point of the curve gives the melting temperature (Tm), which shifts to a higher temperature in the presence of the pT peptide.
To evaluate the thermal stability of the D2 variant, phage particles displaying the D2 variant were heated at various temperatures (30° C., 37° C., 50° C., 60° C., 70° C., 80° C., and 95° C.) prior to incubation with the cognate pT peptide (Rad9-pT) and the non-phosphorylated form of the same peptide (Rad9-T). […] (FIG. 8). The D2 variant (purified six-his tagged protein) was mixed with SYPRO orange dye with or without the Rad9-pT-containing peptide and heated from 25° C. to 95° C. in a real-time PCR experiment known as the Fluorescence-based thermal shift (FTS) assay^36. In this assay, initially, the fluorescence of SYPRO orange dye is quenched in the aqueous environment of a folded protein, but as the protein starts to unfold upon heating, the dye interacts with the hydrophobic core of the protein and its fluorescence increases. Therefore, an increase in fluorescence of the dye is directly proportional to protein unfolding, until a temperature (referred to as Tm here) is reached at which the dye fluorescence decreases due to aggregation and precipitation of the protein. The melting temperature (Tm) of the D2 variant was determined by fluorescence-based thermal shift (FTS) assay to be approximately 5° C. lower than the Tm of the WT FHA1 domain. To improve the thermal stability of the D2 variant, affinity selection was carried out by heating the phage library displaying D2 variants at 50° C. prior to incubation with the pT peptide ligand to favor the isolation of variants that remained folded and functional above 50° C.
(§2) The Tm values of FHA1 variants were determined by FTS assay (Giuliani et al. (2008) Biochemistry 47, 13974-84). A representative Tm curve for the G2 variant at 1 μM concentration is shown (solid squares), alone and in the presence of the pT peptide (FIG. 11). […] The Tm values of the thermally stable variants (along with WT and D2 variant) at 1 μM and 4 μM concentration, along with the Tm shift in the presence of two different concentrations (50 μM and 250 μM) of the pT peptide, are listed in Table S3.
The Tm (temperature at which 50% of the protein is unfolded) of the protein domain variants was determined by a fluorescence-based thermal shift assay (Giuliani et al. (2008) Biochemistry 47, 13974-84). The proteins were mixed with SYPRO orange dye, and heated from 25° C. to 95° C. on a real-time thermocycler. […]

Data set [3] has as its target T2, pT peptide (Rad 9-pT: SLEVpTEADATFYAKK). Nature of the data set: Isothermal titration calorimetry (ITC). It counts as binding, yeast. The conditions noted are these: in solution by ITC; FHA1 domain 35 μM in cell; listed as WT FHA1 domain. The protocol:
A fixed amount (10 μL) of the pT peptide (Rad 9-pT: SLEVpTEADATFYAKK (SEQ ID NO:9); 500 μM) was injected from the syringe into the sample cell containing the FHA1 domain (35 μM). […] Each measurement was repeated three times.
The affinity of the G2 variant and the WT FHA1 domain to the pT peptide (SLEVpTEADATFYAKK) (SEQ ID NO:9) was determined by ITC (FIG. 12). The sample cell contained the purified FHA1 domains (35 μM) and the injection syringe was filled with the pT peptide (350 μM). […] The FHA1 domains bound to the pT peptide with a stoichiometry of 1:1, and the ITC graph was fitted by the single site binding model.

Data set [4] concerns the target T3, cognate pT peptide (Rad9-pT) (Saccharomyces cerevisiae, UniProt P14737).
T3 construct: host or cells: chemical synthesis
Briefly: FTS assay, Tm shift in the presence of the cognate pT peptide. The class given is binding, yeast. As for the experimental part:
as §1, §2

“And” between values parts separate entries of the source, which are not always exact repeats. Identical values can stand only once. “Also recorded” adds a separate entry of the source. Like-named read-outs stand apart in the source and are kept apart here.

B1: WT: N-terminal FHA1 domain of S. cerevisiae Rad53 protein kinase, residues 1-170 (SEQ ID NO:7) (protein, listed as Saccharomyces cerevisiae)
chain: MENITQPTQQSTQATQRFLIEKFSQEQIGENIVCRVICTTGQIPIRDLSADISQVLKEKRSIKKVWTFGRNPACDYHLGNISRLSNKHFQILLGEDGNLLLNDISTNGTWLNGQKVEKNSNQLLSQGDEITVGVGVESDILSLVIFINDKFKQCLEQNKVDRIRSNLKNT
Regarding B1, the “binding of GST fusion to Rad9-pT peptide” value in the data set with Rad9-pT peptide is listed as “bound specifically; also recorded: showed specific binding”. Further, the Kd (as a rule, the free concentration of one partner at which half of the binding sites on the other are occupied at equilibrium, for simple one-to-one binding) in data set [1] is 0.53 µM; in data set [3], ~1 µM and 1 µM. Further, the “Tm (° C.)” value turned out to be 66.7 °C in data set [2] (protein concentration 1 μM) and 66.4 °C in data set [2] (protein concentration 4 μM). In addition, the “Tm shift (° C.) in the presence of pT peptide” value in data set [4] (50 μM pT peptide, protein 1 μM) was 1.7 °C; in data set [4] (50 μM pT peptide, protein 4 μM), 1.95 °C; in data set [4] (250 μM pT peptide, protein 1 μM) it was 3.8 °C; in data set [4] (250 μM pT peptide, protein 4 μM), 3.55 °C.
